According to publication PMC4865633, “Data on dimer formation between importin α subtypes” (Data in Brief, 2016):

B1: FLAG-h-importin α8 (KPNA7) (natural protein)
chain: not shown
notes: human importin α8 (KPNA7), amplified from pcDNA5/3xFLAG-h-importin α8 with primers from the start codon to the stop codon, in pGEX6P3; Cleavage of GST is told in general in the methods; also called FLAG-importin α8; IMPα8; source: E. coli Rosetta, GST fusion purified on GSH beads, bacterially expressed and purified recombinant protein; not shown: FLAG, N-terminal, kept
B2: SV40TNLS-GFP (domain or fragment)
chain: PPKKKRKVED
notes: also called SV40TNLS substrate; SV40 large T antigen NLS
B3: GST-h-importin α3 (KPNA4, Qip1) (natural protein)
chain: MADNEKLDNQRLKNFKNKGRDLETMRRQRNEVVVELRKNKRDEHLLKRRNVPHEDICEDSDIDGDYRVQNTSLEAIVQNASSDNQGIQLSAVQAARKLLSSDRNPPIDDLIKSGILPILVHCLERDDNPSLQFEAAWALTNIASGTSEQTQAVVQSNAVPLFLRLLHSPHQNVCEQAVWALGNIIGDGPQCRDYVISLGVVKPLLSFISPSIPITFLRNVTWVMVNLCRHKDPPPPMETIQEILPALCVLIHHTDVNILVDTVWALSYLTDAGNEQIQMVIDSGIVPHLVPLLSHQEVKVQTAALRAVGNIVTGTDEQTQVVLNCDALSHFPALLTHPKEKINKEAVWFLSNITAGNQQQVQAVIDANLVPMIIHLLDKGDFGTQKEAAWAISNLTISGRKDQVAYLIQQNVIPPFCNLLTVKDAQVVQVVLDGLSNILKMAEDEAETIGNLIEECGGLEKIEQLQNHENEDIYKLAYEIIDQFFSSDDIDEDPSLVPEAIQGGTFGFNSSANVPTEGFQF
notes: human importin α3 (KPNA4, Qip1); plasmid pGEX2T-human-importin α3, obtained as described previously; also called GST-importin α3; IMPα3; source: E. coli Rosetta, purified on GSH beads, bacterially expressed and purified recombinant protein

Tests used:
Conditions in all cases: both partners purified
[1] = biological target: B3; assay: pull-down; GST-h-importin α3 (50 pmol) on GSH beads preincubated with p53 (250 pmol) in TB with 0.1% Triton X-100 at 4 °C for 1 h, washed, then 50 or 500 pmol FLAG-h-importin α8 or α1 added at 4 °C for 1 h; western blot (Fig. 2B)
[2] = biological target: T1, GST-h-importin α8 (KPNA7) (human, UniProt A9QM74 1-516); assay: pull-down; GST fusions immobilized on GSH beads, 100 pmol FLAG-importin α in 200 μL transport buffer (20 mM HEPES pH 7.3, 110 mM potassium acetate, 2 mM magnesium acetate, 1 mM EGTA, 1 mM DTT) with 0.1% Triton X-100, 4 °C, 1 h; western blot with anti-FLAG and anti-GST (Fig. 1A)
T1 construct: human importin α8 (KPNA7); also called GST-importin α8; IMPα8; source: E. coli Rosetta, purified on GSH beads, bacterially expressed and purified recombinant protein

[3] = biological target: GST-m-importin α1 (KPNA2) (mouse, UniProt P52293 1-529); assay: as above
[4] = biological target: B3; assay: pull-down; GST-h-importin α3 (50 pmol) on GSH beads preincubated with SV40TNLS-GFP (50 pmol) at 4 °C for 1 h, washed, then 50 or 500 pmol FLAG-h-importin α8 or α1 added at 4 °C for 1 h; western blot (Fig. 1B)
[5] = biological target: FLAG-h-importin α1 (KPNA2) (human, UniProt P52292 1-529); assay: pull-down; GST-h-importin α3 (50 pmol) on GSH beads preincubated with p53 (250 pmol) in TB with 0.1% Triton X-100 at 4 °C for 1 h, washed, then 50 or 500 pmol FLAG-h-importin α8 or α1 added at 4 °C for 1 h; western blot (Fig. 2B)

T1 sequence (A9QM74 whole entry, the tested form may be a part): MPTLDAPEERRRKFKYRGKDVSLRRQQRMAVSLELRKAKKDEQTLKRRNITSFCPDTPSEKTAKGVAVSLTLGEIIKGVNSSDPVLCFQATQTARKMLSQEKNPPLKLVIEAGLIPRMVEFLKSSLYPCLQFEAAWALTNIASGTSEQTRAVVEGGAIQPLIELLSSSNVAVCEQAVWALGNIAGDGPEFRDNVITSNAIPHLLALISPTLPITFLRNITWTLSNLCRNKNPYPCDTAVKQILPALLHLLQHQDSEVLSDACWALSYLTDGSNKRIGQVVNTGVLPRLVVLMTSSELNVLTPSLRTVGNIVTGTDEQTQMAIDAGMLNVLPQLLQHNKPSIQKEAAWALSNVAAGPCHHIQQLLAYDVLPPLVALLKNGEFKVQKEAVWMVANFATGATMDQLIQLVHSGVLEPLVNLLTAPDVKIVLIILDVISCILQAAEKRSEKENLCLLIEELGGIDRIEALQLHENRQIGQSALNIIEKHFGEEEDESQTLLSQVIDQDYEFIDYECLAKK

## B1
[1]
  binding result: binds
[2]
  binding result: binds
[3]
  binding result: binds

## B2
[4]
  binding result: binds

## B3
[5]
  binding result: binds
